Measurements published in patent publication US20110313018.

T1: His-tagged full-length recombinant LGN/GPSM2 (pET28a-LGN/GPSM2, E. coli)
T1 chain: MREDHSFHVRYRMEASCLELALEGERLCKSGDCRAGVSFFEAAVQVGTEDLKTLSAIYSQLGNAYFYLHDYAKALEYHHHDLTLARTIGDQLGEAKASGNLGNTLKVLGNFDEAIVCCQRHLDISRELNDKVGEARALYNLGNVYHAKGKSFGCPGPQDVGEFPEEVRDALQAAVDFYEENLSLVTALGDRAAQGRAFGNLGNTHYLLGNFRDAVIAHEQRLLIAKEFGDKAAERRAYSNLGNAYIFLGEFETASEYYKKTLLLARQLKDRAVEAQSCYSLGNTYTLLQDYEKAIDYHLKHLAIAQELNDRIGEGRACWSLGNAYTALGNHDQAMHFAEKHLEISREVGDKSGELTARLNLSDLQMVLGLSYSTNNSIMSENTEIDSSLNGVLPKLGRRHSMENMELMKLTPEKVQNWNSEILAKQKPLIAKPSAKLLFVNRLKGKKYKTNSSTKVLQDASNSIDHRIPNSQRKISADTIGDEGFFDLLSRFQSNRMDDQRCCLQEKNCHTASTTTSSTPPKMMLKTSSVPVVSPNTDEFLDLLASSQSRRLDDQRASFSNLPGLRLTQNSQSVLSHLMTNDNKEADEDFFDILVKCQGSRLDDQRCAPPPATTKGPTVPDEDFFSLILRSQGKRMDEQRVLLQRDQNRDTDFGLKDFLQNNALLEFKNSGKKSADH

T2: GST-LGN/GPSM2 wild type, full-length recombinant (pGEX 6P-2-LGN/GPSM2, E. coli)
T2 chain: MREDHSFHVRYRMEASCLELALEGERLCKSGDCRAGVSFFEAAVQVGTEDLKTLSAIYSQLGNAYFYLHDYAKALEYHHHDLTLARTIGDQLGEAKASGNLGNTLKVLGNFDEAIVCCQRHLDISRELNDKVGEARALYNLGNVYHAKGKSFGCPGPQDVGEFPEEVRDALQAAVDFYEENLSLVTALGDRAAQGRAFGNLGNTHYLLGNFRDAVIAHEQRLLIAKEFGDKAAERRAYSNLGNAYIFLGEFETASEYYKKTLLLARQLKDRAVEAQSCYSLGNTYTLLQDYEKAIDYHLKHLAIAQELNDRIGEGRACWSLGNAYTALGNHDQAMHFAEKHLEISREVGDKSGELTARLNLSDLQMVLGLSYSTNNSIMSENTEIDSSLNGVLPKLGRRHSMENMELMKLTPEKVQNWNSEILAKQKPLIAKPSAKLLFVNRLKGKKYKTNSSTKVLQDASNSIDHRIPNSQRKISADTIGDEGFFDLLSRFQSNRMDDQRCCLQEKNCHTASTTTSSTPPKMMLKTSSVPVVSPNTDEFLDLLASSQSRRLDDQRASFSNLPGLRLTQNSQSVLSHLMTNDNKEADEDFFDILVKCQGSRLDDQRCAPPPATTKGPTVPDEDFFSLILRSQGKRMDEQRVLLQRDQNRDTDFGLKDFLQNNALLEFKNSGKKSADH


Key:
[1] = target: T1, His-tagged full-length recombinant …
[2] = target: T2, GST-LGN/GPSM2 wild type, full-length …
[3] = target: GST-LGN/GPSM2 S401A

Protein | in vitro kinase assay (western blot with anti-phosphorylated threonine antibody) [1] | in vitro kinase assay (autoradiography, [gamma-32P]-ATP) [2] | in vitro kinase assay with GST-LGN/GPSM2 WT and alanine substitutes (autoradiography) [2] | in vitro kinase assay (autoradiography, [gamma-32P]-ATP) [3]
recombinant full-length PBK/TOPK (Invitrogen) (protein) MEGISNFKTPSKLSEKKKSVLCSTPTINIPASPIMQKLGFGTGVNVYLMKRSPRGLSHSPWAVKKINPICNDHYRSVYQKRLMDEAKILKSLHHPNIVGYRAFTEASDGSLCLAMEYGGEKSLNDLIEERYKASQDPFPAAIILKVALNMARGLKYLHQEKKLLHGDIKSSNVVIKGDFETIKICDVGVSLPLDENMTVTDPEACYIGTEPWKPKEAVEENGVITDKADIFAFGLTLWEMMTLSIPHINLSNDDDDEDKTFDESDFDDEAYYAALGTRPPINMEELDESYQKVIELFSVCTNEDPKDRPSAAHIVEALETDV | found phosphorylation of the LGN/GPSM2 protein by PBK/TOPK in vitro (FIG. 8B) | The autoradiography images also showed phosphorylation of the LGN/GPSM2 protein by PBK/TOPK (FIG. 8C) | PBK/TOPK, which was has been shown to phosphorylate LGN/GPSM2 in FIG. 8, did not phosphorylate these amino acids identified here (FIG. 10C) | –
recombinant Aurora kinase B (SignalChem) (protein) MAQKENSYPWPYGRQTAPSGLSTLPQRVLRKEPVTPSALVLMSRSNVQPTAAPGQKVMENSSGTPDILTRHFTIDDFEIGRPLGKGKFGNVYLAREKKSHFIVALKVLFKSQIEKEGVEHQLRREIEIQAHLHHPNILRLYNYFYDRRRIYLILEYAPRGELYKELQKSCTFDEQRTATIMEELADALMYCHGKKVIHRDIKPENLLLGLKGELKIADFGWSVHAPSLRRKTMCGTLDYLPPEMIEGRMHNEKVDLWCIGVLCYELLVGNPPFESASHNETYRRIVKVDLKFPASVPMGAQDLISKLLRHNPSERLPLAQVSAHPWVRANSRRVLPPSALQSVA | – | the phosphorylation of GST-LGN/GPSM2 by both Aurora kinase A and B | – | Substitution of serine 401 to alanine distinguished the phosphorylation of GST-LGN/GPSM2 by both Aurora kinase A and B
recombinant Aurora kinase A (SignalChem) (protein) MDRSKENCISGPVKATAPVGGPKRVLVTQQFPCQNPLPVNSGQAQRVLCPSNSSQRIPLQAQKLVSSHKPVQNQKQKQLQATSVPHPVSRPLNNTQKSKQPLPSAPENNPEEELASKQKNEESKKRQWALEDFEIGRPLGKGKFGNVYLAREKQSKFILALKVLFKAQLEKAGVEHQLRREVEIQSHLRHPNILRLYGYFHDATRVYLILEYAPLGTVYRELQKLSKFDEQRTATYITELANALSYCHSKRVIHRDIKPENLLLGSAGELKIADFGWSVHAPSSRRTTLCGTLDYLPPEMIEGRMHDEKVDLWSLGVLCYEFLVGKPPFEANTYQETYKRISRVEFTFPDFVTEGARDLISRLLKHNPSQRPMLREVLEHPWITANSSKPSNCQNKESASKQS | – | the phosphorylation of GST-LGN/GPSM2 by both Aurora kinase A and B | – | Substitution of serine 401 to alanine distinguished the phosphorylation of GST-LGN/GPSM2 by both Aurora kinase A and B
